Reference: US7951356B1, “Tissue factor compositions and kits for coagulation and tumor treatment” (Board of Regents, The University of Texas System, priority 1997, dated 2011)
Positions count from the first letter of the chain named. Numbers in names are those of the source.

Key:
[1] = system: HT29 (human colorectal carcinoma) xenograft; test: Tumor necrosis in HT29 xenografts 24 hours after treatment (Example XII); type: in vivo, mouse; conditions: 24 hours after intravenous injection; tumors 0.5 to 1.0 cm^3; FIG. 23
Method: For these studies, the inventors chose the HT29 (human colorectal carcinoma) xenograft tumor model. HT29 cells (10^7 cells/mouse) were subcutaneously injected into BALB/c nu/nu mice. Tumor dimensions were monitored and animals were treated when the tumor size was between 0.5 and 1.0 cm^3.
Animals were sacrificed 24 hours after treatment, perfused with saline and heparin and exsanguinated. Tumors and organs were collected, formalin fixed and histological sections were prepared. The average area of necrosis in sections of the tumors was quantified and calculated as a percentage of the total area of tumor on the section.

[2] = cited from earlier work
[3] = Toxicity to mice of tTF mutants and Factor VIIa given separately; type: in vivo
citrated mouse plasma = test: In vitro coagulation assay: tTF constructs localized on A20 lymphoma cells via bispecific antibody B21-2/10H10; type: cell-based; conditions: for coagulation times compared with tTF219 and Factor VIIa at the same concentrations: addition of Factor VIIa at 1 nM or greater, FIG. 22; for coagulation-inducing activity once localized on A20 cells via B21-2/10H10, in words (compared with tTF219): plasma coagulation
Method: This assay was used to verify that tTF, various derivatives and mutants thereof, and immunoglobulin-tTF conjugates acquire coagulation inducing activity once localized at a cell surface. A20 lymphoma cells (I-A^d positive) (2×10^6 cells/ml, 50 μl) were incubated for 1 h at room temperature with a bispecific antibody (50 μg/ml, 25 μl) consisting of a Fab′ arm of the B21-2 antibody directed against I-A^d linked to a Fab′ arm of the 10H10 antibody directed against a non-inhibitory epitope on tTF. The cells were washed at room temperature and varying concentrations of tTF, derivatives or mutants thereof, or immunoglobulin-tTF conjugates were added for 1 hour at room temperature. The bispecific antibody captures the tTF or tTF linked to immunoglobulin, bringing it into close approximation to the cell surface, where coagulation can proceed.
The cells were washed again at room temperature, resuspended in 75 μl of PBS and warmed to 37° C. […] The time for the first fibrin strands to form was recorded. Clotting time was plotted against tTF concentration and curves compared with standard curves prepared using standard tTF219 preparations.

Factor VIIa: recombinant human Factor VIIa
necrosis in tumor sections, in words [1]: some necrosis
half-life in vivo [2]: approximately two

B1: tTF219 (G164A): amino acid 164 (Gly) of tTF219 replaced by Ala; SEQ ID NO:9 (protein)
chain: SGTTNTVAAYNLTWKSTNFKTILEWEPKPVNQVYTVQISTKSGDWKSKCFYTTDTECDLTDEIVKDVKQTYLARVFSYPAGNVESTGSAGEPLYENSPEFTPYLETNLGQPTIQSFEQVGTKVNVTVEDERTLVRRNNTFLSLRDVFGKDLIYTLYYWKSSSSAKKTAKTNTNEFLIDVDKGENYCFSVQAVIPSRTVNRKSTDSPVECMGQEKGEFRE
necrosis in tumor sections, in words [1]: some necrosis
toxicity to mice [3]: practically non-toxic
coagulation times compared with tTF219 and Factor VIIa at the same concentrations (citrated mouse plasma): only marginally slower coagulation times
coagulation-inducing activity once localized on A20 cells via B21-2/10H10, in words (compared with tTF219) (citrated mouse plasma): Weak coagulation

B2: tTF219 (W158R): tryptophan at amino acid 158 of tTF219 mutated to an arginine; SEQ ID NO:8 (protein)
chain: B1 chain with W158R, A164G
toxicity to mice [3]: practically non-toxic
coagulation times compared with tTF219 and Factor VIIa at the same concentrations (citrated mouse plasma): only marginally slower coagulation times
coagulation-inducing activity once localized on A20 cells via B21-2/10H10, in words (compared with tTF219) (citrated mouse plasma): Weak coagulation
